This is an account of results in article PMC5906708, “Manipulation of Light Signal Transduction Factors as a Means of Modifying Steroidal Glycoalkaloids Accumulation in Tomato Leaves”.

In one series the target is SlPIF3 (GST-PIF3) (Solanum lycopersicum, UniProt A0A3Q7EQR7 388-618). The experiment in a line: EMSA; LightShift Chemiluminescent EMSA kit, 25 min at 22 C, 6% native PAGE; buffer, salt and pH not stated. Conditions: protein: recombinant, tags: GST (pGEX-4T-1), chain copies: 2, label: biotin. Background: Mobility shift assays separate free from complexed probe on a gel.
In the next series the target is T1, SlHY5 (GST-HY5) (Solanum lycopersicum, UniProt Q9SM50 1-158).
T1 sequence: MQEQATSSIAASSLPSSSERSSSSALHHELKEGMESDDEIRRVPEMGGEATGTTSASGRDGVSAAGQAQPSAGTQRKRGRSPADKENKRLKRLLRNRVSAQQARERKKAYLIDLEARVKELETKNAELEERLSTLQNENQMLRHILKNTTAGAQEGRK
The description is as above. As to conditions: protein: recombinant, tags: GST (pGEX-4T-1), chain copies: 2, label: biotin.

Chain of SlPIF3 (GST-PIF3) (A0A3Q7EQR7 entry or part of it): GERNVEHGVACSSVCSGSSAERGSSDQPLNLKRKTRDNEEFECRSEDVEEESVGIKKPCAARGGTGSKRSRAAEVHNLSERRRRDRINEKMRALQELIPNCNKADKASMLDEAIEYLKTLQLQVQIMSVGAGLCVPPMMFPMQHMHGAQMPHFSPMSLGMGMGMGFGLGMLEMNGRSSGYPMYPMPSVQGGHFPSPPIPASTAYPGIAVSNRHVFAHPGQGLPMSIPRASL

B1: GAME11 probe (dsDNA)
DNA 1: AAGTAAATTATAAATATACGTGACGAAAACGATCTTTAAAATTCTTTGTA
DNA 2: TACAAAGAATTTTAAAGATCGTTTTCGTCACGTATATTTATAATTTACTT
B1: the binding result with SlPIF3 (GST-PIF3) (blunt) and with SlHY5 (GST-HY5) (blunt) was “no binding” in each case.

B2: GAME12 probe (dsDNA)
DNA 1: GAAACGATATAATATACGTGATACAAGTTTATTAATAAATCAATGGCCCA
DNA 2: TGGGCCATTGATTTATTAATAAACTTGTATCACGTATATTATATCGTTTC
Take B2: the binding result with SlPIF3 (GST-PIF3) (blunt) and in the series with SlHY5 (GST-HY5) (blunt) was “no binding” each time.

B3: GAME4 promoter G-box probe (dsDNA)
DNA 1: GTTGGGGGGCTAAATTATATTCACGTGATTGTATTTTTTTTTTTAATTGC
DNA 2: GCAATTAAAAAAAAAAATACAATCACGTGAATATAATTTAGCCCCCCAAC
For B3, the binding result with SlPIF3 (GST-PIF3) and with SlHY5 (GST-HY5) was “binds” in each case.

B4: GAME18 probe (dsDNA)
DNA 1: TGATACAACTAAAAGACATACGTTTAAAAAAGCAAATTGATCAAGTCGTTTG
DNA 2: CAAACGACTTGATCAATTTGCTTTTTTAAACGTATGTCTTTTAGTTGTATCA
B4: the binding result with SlPIF3 (GST-PIF3) (blunt) and in the series with SlHY5 (GST-HY5) (blunt) was “no binding” in each case.

B5: GAME1 promoter G-box probe (dsDNA)
DNA 1: GATTGCTTAAAGAGAGAATACCACGTGATGTCCCCCACACCACACCTGCT
DNA 2: AGCAGGTGTGGTGTGGGGGACATCACGTGGTATTCTCTCTTTAAGCAATC
For B5, the binding result in the series with SlPIF3 (GST-PIF3) and with SlHY5 (GST-HY5) was “binds” in each case.

B6: GAME17 promoter G-box probe (dsDNA)
DNA 1: CGACATTTGATTGAATTTTAAATTTCACACGTGATACATAGATTGAGATT
DNA 2: AATCTCAATCTATGTATCACGTGTGAAATTTAAAATTCAATCAAATGTCG
On to B6, for which the binding result in the series with SlPIF3 (GST-PIF3) and in the series with SlHY5 (GST-HY5) was “binds” each time.

B7: GAME2 probe (dsDNA)
DNA 1: ATCCCAAAAGAGTTGTTAGGTCGTGCACAAAACCCGTTTTCTGCGAAAAT
DNA 2: ATTTTCGCAGAAAACGGGTTTTGTGCACGACCTAACAACTCTTTTGGGAT
In the case of B7, the binding result in the series with SlPIF3 (GST-PIF3) (blunt) and with SlHY5 (GST-HY5) (blunt) was “no binding” throughout.

B8: GAME6 probe (dsDNA)
DNA 1: ATAATAACACCGTTTCTCTGCTTTAAGCGTGCTTTTTATCTCATAACTAAAAACT
DNA 2: AGTTTTTAGTTATGAGATAAAAAGCACGCTTAAAGCAGAGAAACGGTGTTATTAT
Regarding B8, the binding result with SlPIF3 (GST-PIF3) (blunt) and in the series with SlHY5 (GST-HY5) (blunt) was “no binding” throughout.
